Results reported in patent publication US20090035321A1, “Intercellular adhesion molecules and their binding ligands” (Boehringer Ingelheim Pharmaceuticals, Inc., published 2009).

Experiments:
Assay in all cases: flow, COS cells
[1] = molecular target: ICAM-1 N269QSQI/IQAEQ (human) (UniProt P05362)
ICAM-1 S5/T (human) = ICAM-1 S5/T (human) (UniProt P05362)
ICAM-1 N240DS/KNA = ICAM-1 N240DS/KNA (human, UniProt P05362)
ICAM-1 E254DE/KEK = ICAM-1 E254DE/KEK (human, UniProt P05362)
ICAM-1 Q1/E = ICAM-1 Q1/E (human, UniProt P05362)
ICAM-1 S3VS/AGL = ICAM-1 S3VS/AGL (human, UniProt P05362)
ICAM-1 S3/T = ICAM-1 S3/T (human, UniProt P05362)
ICAM-1 V4/G = ICAM-1 V4/G (human, UniProt P05362)
ICAM-1 K8/E = ICAM-1 K8/E (human, UniProt P05362)
ICAM-1 R13/E = ICAM-1 R13/E (human, UniProt P05362)
ICAM-1 R13/K = ICAM-1 R13/K (human, UniProt P05362)
ICAM-1 G15/SA = ICAM-1 G15/SA (human, UniProt P05362)
ICAM-1 T20CS/ACT = ICAM-1 T20CS/ACT (human, UniProt P05362)
ICAM-1 S24/A = ICAM-1 S24/A (human, UniProt P05362)
ICAM-1 D26QPK/ALPE = ICAM-1 D26QPK/ALPE (human, UniProt P05362)
ICAM-1 Q27/L = ICAM-1 Q27/L (human, UniProt P05362)
ICAM-1 E34/A = ICAM-1 E34/A (human, UniProt P05362)
ICAM-1 K39KE/ERQ = ICAM-1 K39KE/ERQ (human, UniProt P05362)
ICAM-1 K40/A = ICAM-1 K40/A (human, UniProt P05362)
ICAM-1 N48/H = ICAM-1 N48/H (human, UniProt P05362)
ICAM-1 R49KV/EKL = ICAM-1 R49KV/EKL (human, UniProt P05362)
ICAM-1 K50V/EL = ICAM-1 K50V/EL (human, UniProt P05362)
ICAM-1 Y52/F = ICAM-1 Y52/F (human, UniProt P05362)
ICAM-1 Y52/FA = ICAM-1 Y52/FA (human, UniProt P05362)
ICAM-1 Q58EDS/AKDI = ICAM-1 Q58EDS/AKDI (human, UniProt P05362)
ICAM-1 Q58/H = ICAM-1 Q58/H (human, UniProt P05362)
ICAM-1 E59/Q = ICAM-1 E59/Q (human, UniProt P05362)
ICAM-1 D60S/KL = ICAM-1 D60S/KL (human, UniProt P05362)
ICAM-1 D60/N = ICAM-1 D60/N (human, UniProt P05362)
ICAM-1 D60/Q = ICAM-1 D60/Q (human, UniProt P05362)
ICAM-1 Q62PM/API = ICAM-1 Q62PM/API (human, UniProt P05362)
ICAM-1 M64/I = ICAM-1 M64/I (human, UniProt P05362)
ICAM-1 Y66/T = ICAM-1 Y66/T (human, UniProt P05362)
ICAM-1 D71/E = ICAM-1 D71/E (human, UniProt P05362)
ICAM-1 D71/N = ICAM-1 D71/N (human, UniProt P05362)
ICAM-1 Q73/H = ICAM-1 Q73/H (human, UniProt P05362)
ICAM-1 S74/A = ICAM-1 S74/A (human, UniProt P05362)
ICAM-1 Y83/S = ICAM-1 Y83/S (human, UniProt P05362)
ICAM-1 E87/K = ICAM-1 E87/K (human, UniProt P05362)
ICAM-1 R88V/EA = ICAM-1 R88V/EA (human, UniProt P05362)
ICAM-1 E90/Q = ICAM-1 E90/Q (human, UniProt P05362)
ICAM-1 E90/K = ICAM-1 E90/K (human, UniProt P05362)
ICAM-1 G101K/AN = ICAM-1 G101K/AN (human, UniProt P05362)
ICAM-1 N118/Q = ICAM-1 N118/Q (human, UniProt P05362)
ICAM-1 K128/R = ICAM-1 K128/R (human, UniProt P05362)
ICAM-1 R149RD/EEG = ICAM-1 R149RD/EEG (human, UniProt P05362)
ICAM-1 N156/E = ICAM-1 N156/E (human, UniProt P05362)
ICAM-1 R166PQ/EPA = ICAM-1 R166PQ/EPA (human, UniProt P05362)
ICAM-1 N175TSA/QTLG = ICAM-1 N175TSA/QTLG (human, UniProt P05362)
ICAM-1 S177/G = ICAM-1 S177/G (human, UniProt P05362)
ICAM-1 A178/G = ICAM-1 A178/G (human, UniProt P05362)
ICAM-1 D229QR/HLE = ICAM-1 D229QR/HLE (human, UniProt P05362)

SLFI % WT [1]: 95 % WT
SLFI % WT (ICAM-1 S5/T (human)): 251 % WT
SLFI % WT (ICAM-1 N240DS/KNA): 142 % WT
SLFI % WT (ICAM-1 E254DE/KEK): 180 % WT
SLFI % WT (ICAM-1 Q1/E): 135 % WT
SLFI % WT (ICAM-1 S3VS/AGL): 121 % WT
SLFI % WT (ICAM-1 S3/T): 224 % WT
SLFI % WT (ICAM-1 V4/G): 111 % WT
SLFI % WT (ICAM-1 K8/E): 111 % WT
SLFI % WT (ICAM-1 R13/E): 202 % WT
SLFI % WT (ICAM-1 R13/K): 189 % WT
SLFI % WT (ICAM-1 G15/SA): 172 % WT
SLFI % WT (ICAM-1 T20CS/ACT): 148 % WT
SLFI % WT (ICAM-1 S24/A): 158 % WT
SLFI % WT (ICAM-1 D26QPK/ALPE): 126 % WT
SLFI % WT (ICAM-1 Q27/L): 33 % WT
SLFI % WT (ICAM-1 E34/A): 132 % WT
SLFI % WT (ICAM-1 K39KE/ERQ): 84 % WT
SLFI % WT (ICAM-1 K40/A): 146 % WT
SLFI % WT (ICAM-1 N48/H): 164 % WT
SLFI % WT (ICAM-1 R49KV/EKL): 233 % WT
SLFI % WT (ICAM-1 K50V/EL): 103 % WT
SLFI % WT (ICAM-1 Y52/F): 152 % WT
SLFI % WT (ICAM-1 Y52/FA): 100 % WT
SLFI % WT (ICAM-1 Q58EDS/AKDI): 98 % WT
SLFI % WT (ICAM-1 Q58/H): 135 % WT
SLFI % WT (ICAM-1 E59/Q): 195 % WT
SLFI % WT (ICAM-1 D60S/KL): 105 % WT
SLFI % WT (ICAM-1 D60/N): 127 % WT
SLFI % WT (ICAM-1 D60/Q): 80 % WT
SLFI % WT (ICAM-1 Q62PM/API): 200 % WT
SLFI % WT (ICAM-1 M64/I): 183 % WT
SLFI % WT (ICAM-1 Y66/T): 144 % WT
SLFI % WT (ICAM-1 D71/E): 124 % WT
SLFI % WT (ICAM-1 D71/N): 109 % WT
SLFI % WT (ICAM-1 Q73/H): 139 % WT
SLFI % WT (ICAM-1 S74/A): 129 % WT
SLFI % WT (ICAM-1 Y83/S): 125 % WT
SLFI % WT (ICAM-1 E87/K): 94 % WT
SLFI % WT (ICAM-1 R88V/EA): 113 % WT
SLFI % WT (ICAM-1 E90/Q): 152 % WT
SLFI % WT (ICAM-1 E90/K): 29 % WT
SLFI % WT (ICAM-1 G101K/AN): 142 % WT
SLFI % WT (ICAM-1 N118/Q): 139 % WT
SLFI % WT (ICAM-1 K128/R): 190 % WT
SLFI % WT (ICAM-1 R149RD/EEG): 159 % WT
SLFI % WT (ICAM-1 N156/E): 182 % WT
SLFI % WT (ICAM-1 R166PQ/EPA): 94 % WT
SLFI % WT (ICAM-1 S177/G): 87 % WT
SLFI % WT (ICAM-1 A178/G): 304 % WT
SLFI % WT (ICAM-1 D229QR/HLE): 210 % WT
Substance: monoclonal antibody CL203
SLFI % WT (ICAM-1 N175TSA/QTLG): 75 % WT
